Source: patent US20130171170A1 (published 2013)

Columns and labels:
[1] = molecular target: T1, cynomolgus monkey (cyno) CD22 expressed on the surface of CHO cells (cynomolgus monkey); assay: cell-based competitive binding of 125I-labelled against unlabelled antibody on CHO cells, 4 h at 4 C, Scatchard analysis
T1 construct: residues 1-19 (signal) should be removed
T1 chain: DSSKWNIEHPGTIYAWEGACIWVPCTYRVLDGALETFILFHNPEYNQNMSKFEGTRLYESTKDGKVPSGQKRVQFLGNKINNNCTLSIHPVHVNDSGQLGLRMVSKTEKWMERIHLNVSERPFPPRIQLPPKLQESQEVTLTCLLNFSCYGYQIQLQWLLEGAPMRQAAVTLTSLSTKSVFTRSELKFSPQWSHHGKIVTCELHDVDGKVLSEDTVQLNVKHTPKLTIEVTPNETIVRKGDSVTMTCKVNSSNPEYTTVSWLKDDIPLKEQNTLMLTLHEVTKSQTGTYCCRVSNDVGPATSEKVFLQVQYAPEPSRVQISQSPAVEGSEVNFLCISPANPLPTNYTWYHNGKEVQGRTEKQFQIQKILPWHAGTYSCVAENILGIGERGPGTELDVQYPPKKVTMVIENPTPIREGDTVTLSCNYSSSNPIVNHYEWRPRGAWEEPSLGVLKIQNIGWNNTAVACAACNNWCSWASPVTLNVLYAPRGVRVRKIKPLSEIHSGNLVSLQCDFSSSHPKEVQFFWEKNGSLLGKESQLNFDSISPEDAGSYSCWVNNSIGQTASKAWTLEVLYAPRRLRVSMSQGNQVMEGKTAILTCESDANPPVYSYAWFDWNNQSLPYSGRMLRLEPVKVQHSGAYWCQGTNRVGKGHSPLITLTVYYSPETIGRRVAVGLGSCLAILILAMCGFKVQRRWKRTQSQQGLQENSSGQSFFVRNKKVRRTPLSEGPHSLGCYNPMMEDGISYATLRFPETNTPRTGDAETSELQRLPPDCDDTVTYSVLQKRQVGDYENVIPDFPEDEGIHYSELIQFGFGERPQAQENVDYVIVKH
Procedure: (§1) Briefly, CHO cells stably expressing full length human CD22 (SEQ ID NO:27) or cynomolgus monkey (cyno) CD22 (SEQ ID NO:31). […] A cell-based, competitive binding assay was performed using serially diluted, unlabeled anti-CD22 antibody. Antibodies were allowed to bind to the cells for 4 hours at 4° C. Binding affinity, KD, of the antibodies was determined in accordance with standard Scatchard analysis performed utilizing a non-linear curve fitting program (see, for example, Munson et al., Anal Biochem, 107: 220-239, 1980).

[2] = molecular target: T2, full length human CD22 (CD22beta) expressed on the surface of CHO cells (human, UniProt P20273 22-847); assay: as above
T2 construct: CHO cells stably expressing full length human CD22; also called CD22beta (control cells)
Procedure: as §1

[3] = molecular target: T3, human CD22-beta-ECD-His tagged soluble antigen (human, UniProt P20273 22-681); assay: SPR (BIACORE 3000), antibody coupled to the chip, soluble CD22-beta-ECD-His injected, 25 C
T3 construct: also called soluble CD22 extracellular domain (ECD); Soluble Human CD22
T3 sequence: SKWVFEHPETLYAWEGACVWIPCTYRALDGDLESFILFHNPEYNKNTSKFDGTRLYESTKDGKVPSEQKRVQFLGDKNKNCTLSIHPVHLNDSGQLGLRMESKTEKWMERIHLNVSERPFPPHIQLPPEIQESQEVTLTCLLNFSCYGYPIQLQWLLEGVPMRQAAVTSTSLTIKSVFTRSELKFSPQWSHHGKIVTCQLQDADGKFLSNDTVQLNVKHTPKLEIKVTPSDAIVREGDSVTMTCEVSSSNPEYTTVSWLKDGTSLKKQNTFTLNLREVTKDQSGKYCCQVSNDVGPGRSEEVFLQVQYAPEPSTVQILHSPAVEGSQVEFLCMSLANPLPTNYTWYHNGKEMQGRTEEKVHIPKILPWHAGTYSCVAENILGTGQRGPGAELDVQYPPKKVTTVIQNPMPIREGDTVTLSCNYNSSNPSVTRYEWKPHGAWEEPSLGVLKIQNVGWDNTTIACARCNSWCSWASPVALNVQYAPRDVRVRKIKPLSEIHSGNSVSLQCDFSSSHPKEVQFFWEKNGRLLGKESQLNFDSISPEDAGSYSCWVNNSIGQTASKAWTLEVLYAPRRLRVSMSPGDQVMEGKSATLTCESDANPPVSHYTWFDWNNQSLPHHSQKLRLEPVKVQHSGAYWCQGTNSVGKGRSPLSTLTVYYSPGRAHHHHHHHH
Procedure: The binding affinity of murine and humanized 10F4 antibody for soluble CD22 extracellular domain (ECD) was determined by surface plasmon resonance measurement using a BIACORE® 3000 system (Biacore, Inc., Piscataway, N.J.). Briefly, carboxymethylated dextran biosensor chips (CMS, Biacore Inc.) were activated with N-ethyl-N′-(3-dimethylaminopropyl)-carbodiimide hydrochloride (EDC) and N-hydroxysuccinimide (NHS) according to the supplier's instructions. These activated chips were coated with anti-CD22 IgG1 antibody 10F4 (murine or humanized) by dilution to 5 μg/ml with 10 mM sodium acetate, pH 4.8, before injection at a flow rate of […] to achieve approximately 500 response units (RU) of coupled antibody. Next, 1M ethanolamine was injected to block unreacted groups. […] Association rates (kₒₙ) and dissociation rates (koff) were calculated using a simple one-to-one Langmuir binding model (BIAevaluation Software version 3.2). The equilibrium dissociation constant (Kd) was calculated as the ratio koff/kₒₙ. Anti-CD22 antibody, RFB4, was used as a control (Chemicon International, Inc., Temecula, Calif., catalog no. CBL147).

Kd [1]: 2.3 nM | Kd [2]: 2.4 nM | Kd [3]: 15 nM | koff [3]: 0.00028 s⁻¹ | kon [3]: 19000 M⁻¹ s⁻¹
B1: murine anti-human CD22 10F4.4.1 monoclonal antibody (antibody, V domains shown)
VH: QVQLQQSGPELVKPGASVKISCKASGYEFSRSWMNWVKQRPGQGREWIGRIYPGDGDTNYSGKFKGKATLTADKSSSTAYMQLSSLTSVDSAVYFCARDGSSWDWYFDVWGAGTTVTVSS
VL: DILMTQTPLSLPVSLGDQASISCRSSQSIVHSNGNTFLEWYLQKPGQSPKLLIYKVSNRFSGVPDRFSGSGSGTDFTLKISRVEAEDLGVYYCFQGSQFPYTFGGGTKVEIK
notes: Murine hybridoma antibody (ATCC PTA-7621); also called mu 10F4; Mu 10F4.4.1
